4 molecules from publication PMC5921532, “Identification of Iridoid Glucoside Transporters in Catharanthus roseus” (Plant and Cell Physiology, 2017) can be followed below.

One data set deals with T1, AtNPF2.9 (Arabidopsis thaliana, UniProt Q9M9V7).
T1 construct: gene NPF2.9; full-length cDNA from transporter library, cRNA expressed in Xenopus laevis oocytes
T1 sequence (Q9M9V7 1-587): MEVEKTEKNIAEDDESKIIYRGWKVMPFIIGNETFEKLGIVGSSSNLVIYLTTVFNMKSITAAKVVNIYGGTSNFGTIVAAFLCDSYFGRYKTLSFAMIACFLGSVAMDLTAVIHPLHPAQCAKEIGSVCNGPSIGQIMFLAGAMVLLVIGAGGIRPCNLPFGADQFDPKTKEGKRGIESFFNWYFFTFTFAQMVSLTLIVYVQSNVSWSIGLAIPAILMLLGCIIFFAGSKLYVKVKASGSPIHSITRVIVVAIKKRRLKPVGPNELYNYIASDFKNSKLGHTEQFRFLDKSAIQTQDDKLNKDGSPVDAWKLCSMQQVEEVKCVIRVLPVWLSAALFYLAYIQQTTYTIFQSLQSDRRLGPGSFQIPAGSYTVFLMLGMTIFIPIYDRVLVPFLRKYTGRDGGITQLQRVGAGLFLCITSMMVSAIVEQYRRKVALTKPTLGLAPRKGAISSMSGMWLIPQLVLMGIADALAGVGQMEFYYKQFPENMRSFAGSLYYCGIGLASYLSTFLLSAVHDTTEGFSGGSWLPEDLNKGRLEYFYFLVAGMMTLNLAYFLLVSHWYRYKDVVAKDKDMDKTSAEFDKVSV
The experiment in a line: uptake screen in Xenopus oocytes, LC-MS. Format: cell-based. The conditions noted are these: pH 5.0; Kulori buffer; 0.5-1 mM loganin, 1 h.

The target of a further data set is T2, AtNAT4 (Arabidopsis thaliana, UniProt P93039).
T2 construct: gene NAT4; full-length cDNA from transporter library, cRNA expressed in Xenopus laevis oocytes
T2 sequence (P93039 1-526): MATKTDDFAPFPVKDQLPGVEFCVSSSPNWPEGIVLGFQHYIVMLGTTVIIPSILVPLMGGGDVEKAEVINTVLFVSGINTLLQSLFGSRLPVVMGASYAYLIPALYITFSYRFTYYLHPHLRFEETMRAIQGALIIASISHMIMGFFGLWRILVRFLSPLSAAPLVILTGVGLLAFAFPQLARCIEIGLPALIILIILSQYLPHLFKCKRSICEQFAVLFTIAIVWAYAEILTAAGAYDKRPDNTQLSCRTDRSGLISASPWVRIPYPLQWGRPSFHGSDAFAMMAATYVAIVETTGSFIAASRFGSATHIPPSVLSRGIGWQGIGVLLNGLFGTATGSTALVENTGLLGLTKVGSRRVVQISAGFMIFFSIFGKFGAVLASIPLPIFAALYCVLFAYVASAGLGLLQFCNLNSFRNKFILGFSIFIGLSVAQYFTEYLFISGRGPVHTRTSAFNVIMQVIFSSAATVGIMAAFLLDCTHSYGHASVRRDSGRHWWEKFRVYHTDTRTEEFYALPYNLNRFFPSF
The experiment in a line: uptake screen in Xenopus oocytes, LC-MS. Format: cell-based. The conditions noted are these: pH 5.0; Kulori buffer; 0.5-1 mM loganin, 1 h.

Substrate in data set [1]: COC(=O)C1=CO[C@@H](O[C@@H]2O[C@H](CO)[C@@H](O)[C@H](O)[C@H]2O)[C@@H]2[C@@H](C)[C@@H](O)C[C@H]12
The experiment in a line: uptake into Xenopus oocytes, LC-MS, Michaelis-Menten fit. Format: cell-based, Catharanthus roseus. The conditions noted are these: pH 5.0, Kulori buffer, 12.5 µM to 2 mM loganin.

With `COC(=O)C1=CO[C@@H](O[C@@H]2O[C@H](CO)[C@@H](O)[C@H](O)[C@H]2O)[C@@H]2[C@@H](C)[C@@H](O)C[C@H]12` [loganin, (1S,4aS,6S,7R,7aS)-6-hydroxy-7-methyl-1-[(2S,3R,4S,5S,6R)-3,4,5-trihydroxy-6-(hydroxymethyl)oxan-2-yl]oxy-1,4a,5,6,7,7a-hexahydrocyclopenta[c]pyran-4-carboxylate], the “uptake screen in Xenopus oocytes, LC-MS” value was “initially screened cDNA library” on AtNPF2.9 and “Two transporters were identified” on AtNAT4.

B1: CrNPF2.4 (Catharanthus roseus) (protein)
chain: MAEKSSSIDATENGFVKIKEPNHRGVKAMPFIVGNETFEKLGTLGTSANLLIYLTTVFHMKSITATNLINIFNGTCNFGTLLGAFFSDTYFGRYKTLGFASVSSTLGMLILTLTAAISKLHPPSCEKNSKACSGPTSGQFAFLFTAFLFLIIGASGIRPCNLAFGADQFNPNTESGRKGTNSFFNWYYFTFTFAMMVSLTVIVYVQSSISWALGLAIPTFLMLLSCVFFFVGSRIYVKVLPEGSPLTSMMQVIVAAFRKRKLNLPDHQPWDSLFNYISPSSINSKLSYTDQFRWLNKAAIKTSKDHLYAEGSTANPWRLCSMQQVEEVKCVIRSIPIWTSGVLYYVVLNQMSTYLVFQALQSDRRIGKTNFKIPAASYTVFSMLSLSIWIPIYDRIIVPFLRKITKTEQGITILQKMGFGLVIAVITMVVSAIIEDKRRVIALTRPIVGIEERKGGISSLSGFWLVPQLALAGISEAFTVIAQVEFFYKQFPENMRSFGGSFLFCGFAISSYLSSFLISIVHKVTRNSSGGNWLDEDLNKARLDYFYYLVAGLEVLNFGYFLVCAHWYRYKETQSGNEIAMEQILDEPKKNLDVV
notes: full-length, Gateway cloned from C. roseus cDNA into pOO2-GW, cRNA expressed in Xenopus laevis oocytes
As for B1, the Km in data set [1] turned out to be 237 ± 35 µM.

B2: CrNPF2.5 (Catharanthus roseus) (protein)
chain: MEENQEHKAIKNHEPNYRGIKAMPFVIGNETFEKLGTIGTSTNLLIYLTSVFHMKTITATNLVNIFNGTCNFGTLVGAFLCDTYFGRYNTLGFASVSSFLGMLVLTLTAAIKNLHPEACGNEEGSKCISPSGGQMAFLLSGFAFLIVGASGIRPCNLAFGADQFNPNTDSGRRGINSFFNWYYFTYTFAMMVSLTIIVYVQSNISWSIGLAIPTFLMFLSCATFFVGTRIYVRVLPEGSPLISVARVIVSAFKKRKLELPDEPKLSLFNHSASSTSSINSKISYTDQFRFLNKAAIITSEDEFNSDGSVKNPWRICTIQQVEEVKCLLKLIPVWISCIIYYISVVQQQNYVVFQALQSDRRLFGTSKFKIPAASYIVIAMLALTIWIPIFDRIIVPCLQKITGKEGGITILQRMGIGMVLSVLTMITSALVESKRRKFALNRPTLGFEPRKGAISSMSGVWLIPQLALSGLSEAFTIIGENELFYKECPENMRSIAMALVFVGFAGSSYLSSLLSSIVQKTTGGNESWLAEDLNRGRLDYFYYLIGALETLNLIYFLVCSKWYKYKQVEKIPQVAMEKLNNVEEKSLV
notes: as for B1
Take B2: the Michaelis-Menten constant (Km) in data set [1] is recorded as 387 ± 57 µM.

B3: CrNPF2.6 (Catharanthus roseus) (protein)
chain: MEKNEKLVPNGTKEDGKVAAKNEPNYRGIKAMPFVLGNETCEKLGTIGTSSNLSVYLSTVFHMNTMSANNVINIFNGTCYLGSLVGAFLCDTYFGRYKTLGLGSVASFLGMLMLTLTAAISTLHPTNCDNSGDCKGPSAGQMAFLVGGFVLMVIGASGIRPCNLAFGADQFNPNTESGRRGINSFFNWYYFTYTFAVMVSATIIVYVQSDISWSIGFAIPTSLMFLSCALFFAGTWLYVKVLPQGSPMTSLVQVIVVSVKKRRLKLPGEPSLLFNHIPSNAINSKLPRTNNFRFLDKAAILTPEDKVNPDGSAANKWKLCSIQQVEEVKCVLRVLPIWIAGVIFQISVTQQSNYVPFQAFQSDRHLIKGNKFQIPAGTYNVFSMLALTIWLPIYDRIIIPLLRRWTKKEDGITLLQRMGVGIVLSILSMLVSALVESRRRNLALTRPTLGIQEGQGSISSMSALWFVPQLALMGLAEGFTFIGENELFYKEFPENMRSIAASLVLCGVAVASYLTSFIAEIVHKTTRSGTRDWLAQDLNKARLDYFFYMVAVLEALNLVYFLVCAKWYRYKGTGDLGKLEVAMEKLETEKHLV
notes: as for B1
With B3, in data set [1], the Michaelis-Menten constant (Km) came out at 60 ± 5 µM.
